Assay results published in publication doi:10.1101/2023.03.09.531510.
One block for each substance: values may come before it.

Legend:
Assay in all cases: protein-fragment complementation
Aim21 = Aim21 (UniProt P40563)
Arc15 = Arc15 (UniProt P40518)
Arc18 = Arc18 (UniProt Q05933)
Arc19 = Arc19 (UniProt P33204)
Arc40 = Arc40 (UniProt P38328)
Bbc1 = Bbc1 (UniProt P47068)
Bmh1 = Bmh1 (UniProt P29311)
Bzz1 = Bzz1 (UniProt P38822)
Cdc10 = Cdc10 (UniProt P25342)
Cdc3 = Cdc3 (UniProt P32457)
Chc1 = Chc1 (UniProt P22137)
Cmd1 = Cmd1 (UniProt P06787)
Hek2 = Hek2 (UniProt P38199)
Hsp104 = Hsp104 (UniProt P31539)
Las17 = Las17 (UniProt Q12446)
Lsb3 = Lsb3 (UniProt P43603)
Mid2 = Mid2 (UniProt P36027)
Myo5 = Myo5 (UniProt Q04439)
Nap1 = Nap1 (UniProt P25293)
Osh2 = Osh2 (UniProt Q12451)
Pab1 = Pab1 (UniProt P04147)
Pan1 = Pan1 (UniProt P32521)
Pfk1 = Pfk1 (UniProt P16861)
Pkh2 = target: Pkh2
Rvs167 = Rvs167 (UniProt P39743)
Sac6 = Sac6 (UniProt P32599)
Sbp1 = Sbp1 (UniProt P10080)
Sfk1 = Sfk1 (UniProt P35735)
Sla1 = Sla1 (UniProt P32790)
Sla2 = Sla2 (UniProt P33338)
Smi1 = Smi1 (UniProt P32566)
Srv2 = Srv2 (UniProt P17555)
Ssb1 = Ssb1 (UniProt P11484)
Ssb2 = Ssb2 (UniProt P40150)
Ssz1 = Ssz1 (UniProt P38788)
Ste20 = Ste20 (UniProt Q03497)
Syp1 = Syp1 (UniProt P25623)
Tdh3 = Tdh3 (UniProt P00359)
Tif4631 = Tif4631 (UniProt P39935)
Vrp1 = Vrp1 (UniProt P37370)
Ygl242c = Ygl242c (UniProt P53066)
Yor1 = Yor1 (UniProt P53049)
Ysc84 = Ysc84 (UniProt P32793)
Ssa1 = Ssa1 (UniProt P10591)
Abp1 = Abp1 (UniProt P15891)

UniProt P10080, sequence (P10080 whole entry): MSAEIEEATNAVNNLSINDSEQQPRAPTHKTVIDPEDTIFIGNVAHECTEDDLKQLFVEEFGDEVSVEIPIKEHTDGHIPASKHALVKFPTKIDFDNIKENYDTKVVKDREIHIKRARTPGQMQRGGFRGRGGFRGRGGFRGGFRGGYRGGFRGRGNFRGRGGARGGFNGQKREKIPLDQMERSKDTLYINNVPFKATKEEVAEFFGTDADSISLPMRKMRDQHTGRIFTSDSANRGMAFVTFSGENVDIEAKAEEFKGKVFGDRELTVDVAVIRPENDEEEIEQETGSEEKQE
UniProt P29311, sequence (P29311 whole entry): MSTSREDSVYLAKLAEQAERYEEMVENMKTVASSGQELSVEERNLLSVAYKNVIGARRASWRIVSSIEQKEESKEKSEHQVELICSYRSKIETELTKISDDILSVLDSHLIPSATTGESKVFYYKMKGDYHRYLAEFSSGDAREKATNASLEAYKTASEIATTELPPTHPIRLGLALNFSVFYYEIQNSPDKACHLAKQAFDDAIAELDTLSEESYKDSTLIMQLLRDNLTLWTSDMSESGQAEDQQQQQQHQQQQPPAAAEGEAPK
UniProt P53049, sequence (P53049 whole entry): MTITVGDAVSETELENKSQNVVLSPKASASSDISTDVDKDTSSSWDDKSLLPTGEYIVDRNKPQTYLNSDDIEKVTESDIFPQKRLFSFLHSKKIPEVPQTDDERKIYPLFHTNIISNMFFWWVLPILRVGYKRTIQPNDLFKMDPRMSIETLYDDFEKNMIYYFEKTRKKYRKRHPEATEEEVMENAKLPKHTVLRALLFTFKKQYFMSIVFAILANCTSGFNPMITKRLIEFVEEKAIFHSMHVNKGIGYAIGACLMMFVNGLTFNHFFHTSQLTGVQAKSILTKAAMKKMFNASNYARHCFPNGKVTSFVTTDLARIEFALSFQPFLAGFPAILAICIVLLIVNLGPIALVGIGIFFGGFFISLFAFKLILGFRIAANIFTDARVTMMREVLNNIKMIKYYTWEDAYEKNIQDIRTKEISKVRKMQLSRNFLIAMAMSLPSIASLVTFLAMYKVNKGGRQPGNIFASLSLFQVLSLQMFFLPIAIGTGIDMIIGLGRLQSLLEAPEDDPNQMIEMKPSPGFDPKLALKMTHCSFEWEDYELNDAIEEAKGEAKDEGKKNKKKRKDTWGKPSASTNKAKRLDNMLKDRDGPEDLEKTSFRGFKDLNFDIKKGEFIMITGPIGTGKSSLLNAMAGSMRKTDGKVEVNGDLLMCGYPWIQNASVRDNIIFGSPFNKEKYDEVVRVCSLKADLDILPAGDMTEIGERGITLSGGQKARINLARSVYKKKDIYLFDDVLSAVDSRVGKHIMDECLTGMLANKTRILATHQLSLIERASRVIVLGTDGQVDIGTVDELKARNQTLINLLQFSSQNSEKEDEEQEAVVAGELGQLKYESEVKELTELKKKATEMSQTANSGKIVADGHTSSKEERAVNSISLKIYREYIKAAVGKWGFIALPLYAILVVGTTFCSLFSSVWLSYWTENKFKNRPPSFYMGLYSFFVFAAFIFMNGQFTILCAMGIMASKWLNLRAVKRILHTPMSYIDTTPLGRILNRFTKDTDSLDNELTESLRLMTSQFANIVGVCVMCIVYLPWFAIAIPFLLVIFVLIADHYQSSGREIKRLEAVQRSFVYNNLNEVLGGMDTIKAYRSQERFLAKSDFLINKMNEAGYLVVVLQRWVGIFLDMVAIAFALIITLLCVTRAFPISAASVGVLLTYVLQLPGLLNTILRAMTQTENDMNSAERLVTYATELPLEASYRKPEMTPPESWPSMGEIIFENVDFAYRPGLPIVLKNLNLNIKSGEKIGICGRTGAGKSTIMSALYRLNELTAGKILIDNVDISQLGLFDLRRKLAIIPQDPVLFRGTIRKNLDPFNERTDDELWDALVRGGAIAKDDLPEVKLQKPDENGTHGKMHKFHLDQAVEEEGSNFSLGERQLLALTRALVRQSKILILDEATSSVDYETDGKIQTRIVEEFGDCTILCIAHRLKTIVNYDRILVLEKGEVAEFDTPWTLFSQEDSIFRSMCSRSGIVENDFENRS
UniProt Q12451, sequence (Q12451 whole entry): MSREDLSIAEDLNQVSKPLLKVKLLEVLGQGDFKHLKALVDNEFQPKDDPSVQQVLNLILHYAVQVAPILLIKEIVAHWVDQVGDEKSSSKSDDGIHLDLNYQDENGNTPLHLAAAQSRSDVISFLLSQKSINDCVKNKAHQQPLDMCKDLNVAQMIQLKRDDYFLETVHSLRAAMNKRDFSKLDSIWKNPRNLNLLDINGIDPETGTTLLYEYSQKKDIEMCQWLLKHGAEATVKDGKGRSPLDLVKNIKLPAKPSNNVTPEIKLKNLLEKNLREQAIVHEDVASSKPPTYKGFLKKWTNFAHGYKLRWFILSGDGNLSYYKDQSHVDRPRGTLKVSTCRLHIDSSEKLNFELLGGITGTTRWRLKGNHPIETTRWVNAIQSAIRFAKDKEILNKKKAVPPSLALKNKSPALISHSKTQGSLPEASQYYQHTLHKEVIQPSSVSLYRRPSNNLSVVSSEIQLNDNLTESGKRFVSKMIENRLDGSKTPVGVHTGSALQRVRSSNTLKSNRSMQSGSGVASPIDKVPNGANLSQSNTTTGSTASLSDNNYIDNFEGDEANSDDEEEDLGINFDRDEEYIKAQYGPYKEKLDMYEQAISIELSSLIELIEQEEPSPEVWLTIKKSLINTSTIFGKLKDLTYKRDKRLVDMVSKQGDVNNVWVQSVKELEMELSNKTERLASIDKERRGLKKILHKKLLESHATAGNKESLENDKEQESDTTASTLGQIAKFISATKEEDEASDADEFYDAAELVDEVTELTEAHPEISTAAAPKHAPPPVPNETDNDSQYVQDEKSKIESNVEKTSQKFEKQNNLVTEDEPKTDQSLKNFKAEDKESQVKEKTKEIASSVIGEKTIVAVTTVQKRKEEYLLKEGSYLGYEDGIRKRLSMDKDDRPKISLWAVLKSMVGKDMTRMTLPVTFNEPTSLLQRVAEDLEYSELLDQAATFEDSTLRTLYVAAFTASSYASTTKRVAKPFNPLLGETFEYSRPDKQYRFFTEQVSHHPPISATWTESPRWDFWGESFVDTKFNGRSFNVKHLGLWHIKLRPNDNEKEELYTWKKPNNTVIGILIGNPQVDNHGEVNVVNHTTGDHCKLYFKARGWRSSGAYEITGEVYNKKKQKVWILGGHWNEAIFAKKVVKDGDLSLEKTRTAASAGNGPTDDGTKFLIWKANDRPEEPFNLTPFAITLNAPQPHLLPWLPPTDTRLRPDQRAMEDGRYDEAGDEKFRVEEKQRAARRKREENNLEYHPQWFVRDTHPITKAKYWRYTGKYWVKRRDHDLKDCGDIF
UniProt P53066, sequence (P53066 whole entry): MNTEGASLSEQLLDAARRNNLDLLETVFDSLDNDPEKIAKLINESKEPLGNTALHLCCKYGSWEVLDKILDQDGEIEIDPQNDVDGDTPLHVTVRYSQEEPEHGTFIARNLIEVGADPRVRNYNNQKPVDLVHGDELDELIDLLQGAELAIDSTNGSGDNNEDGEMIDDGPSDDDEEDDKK
UniProt P32521, sequence (P32521 whole entry): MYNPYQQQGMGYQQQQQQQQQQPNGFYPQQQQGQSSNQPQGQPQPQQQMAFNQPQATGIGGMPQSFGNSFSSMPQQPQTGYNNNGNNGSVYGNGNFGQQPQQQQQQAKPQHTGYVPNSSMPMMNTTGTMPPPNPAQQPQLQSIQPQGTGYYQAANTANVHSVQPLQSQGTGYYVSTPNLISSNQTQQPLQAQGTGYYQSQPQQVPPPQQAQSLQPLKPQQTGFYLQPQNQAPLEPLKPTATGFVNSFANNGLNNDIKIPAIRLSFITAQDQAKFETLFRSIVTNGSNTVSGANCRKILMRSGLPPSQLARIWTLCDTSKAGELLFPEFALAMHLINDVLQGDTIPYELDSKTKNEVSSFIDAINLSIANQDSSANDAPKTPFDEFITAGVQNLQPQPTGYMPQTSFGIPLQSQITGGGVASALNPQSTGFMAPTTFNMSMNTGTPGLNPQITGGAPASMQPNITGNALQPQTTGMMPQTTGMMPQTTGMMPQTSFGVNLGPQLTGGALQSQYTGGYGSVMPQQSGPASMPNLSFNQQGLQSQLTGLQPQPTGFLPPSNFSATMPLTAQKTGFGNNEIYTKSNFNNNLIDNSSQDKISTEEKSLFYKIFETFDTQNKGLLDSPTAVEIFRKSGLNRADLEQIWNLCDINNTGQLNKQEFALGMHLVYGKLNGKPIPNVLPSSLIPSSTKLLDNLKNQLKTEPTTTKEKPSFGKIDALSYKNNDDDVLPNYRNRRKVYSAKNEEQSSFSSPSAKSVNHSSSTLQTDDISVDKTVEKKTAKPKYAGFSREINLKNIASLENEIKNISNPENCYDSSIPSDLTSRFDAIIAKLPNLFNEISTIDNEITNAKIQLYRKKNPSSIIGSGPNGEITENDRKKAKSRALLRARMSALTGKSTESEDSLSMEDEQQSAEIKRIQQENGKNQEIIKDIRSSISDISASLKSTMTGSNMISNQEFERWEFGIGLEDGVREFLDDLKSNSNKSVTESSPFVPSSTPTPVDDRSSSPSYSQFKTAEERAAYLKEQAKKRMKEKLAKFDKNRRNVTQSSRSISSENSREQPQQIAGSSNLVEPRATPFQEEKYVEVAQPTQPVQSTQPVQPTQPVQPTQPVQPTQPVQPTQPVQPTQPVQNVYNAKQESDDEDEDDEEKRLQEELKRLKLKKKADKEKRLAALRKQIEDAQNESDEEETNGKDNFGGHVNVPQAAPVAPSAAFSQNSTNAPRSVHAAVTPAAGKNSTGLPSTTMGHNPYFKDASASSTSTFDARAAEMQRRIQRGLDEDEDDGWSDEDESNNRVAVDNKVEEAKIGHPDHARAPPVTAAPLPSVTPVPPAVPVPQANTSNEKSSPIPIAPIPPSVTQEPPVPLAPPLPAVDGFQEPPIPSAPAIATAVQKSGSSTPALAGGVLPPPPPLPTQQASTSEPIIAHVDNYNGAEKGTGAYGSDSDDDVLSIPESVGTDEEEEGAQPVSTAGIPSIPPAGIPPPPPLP

interaction score (Aim21): 0.755
interaction score (Arc15): 0.898
interaction score (Arc18): 0.878
interaction score (Arc19): 0.771
interaction score (Arc40): 0.964
interaction score (Bbc1): 0.758
interaction score (Bmh1): 0.823
interaction score (Bzz1): 0.818
interaction score (Cdc10): 0.416
interaction score (Cdc3): 0.515
interaction score (Chc1): 0.603
interaction score (Cmd1): 0.497
interaction score (Hek2): 0.417
interaction score (Hsp104): 0.767
interaction score (Las17): 0.875
interaction score (Lsb3): 0.637
interaction score (Mid2): 0.854
interaction score (Myo5): 0.901
interaction score (Nap1): 0.52
interaction score (Osh2): 0.755
interaction score (Pab1): 0.797
interaction score (Pan1): 0.926
interaction score (Pfk1): 0.867
interaction score (Pkh2): 0.0795
interaction score (Rvs167): 0.567
interaction score (Sac6): 0.823
interaction score (Sbp1): 0.832
interaction score (Sfk1): 0.733
interaction score (Sla1): 0.568
interaction score (Sla2): 0.646
interaction score (Smi1): 0.562
interaction score (Srv2): 0.649
interaction score (Ssb1): 0.941
interaction score (Ssb2): 0.932
interaction score (Ssz1): 0.834
interaction score (Ste20): 0.482
interaction score (Syp1): 0.564
interaction score (Tdh3): 0.97
interaction score (Tif4631): 0.672
interaction score (Vrp1): 0.919
interaction score (Ygl242c): 0.942
interaction score (Yor1): 0.488
interaction score (Ysc84): 0.505
Substance: Myo5 with SH3 AncB (from UniProt Q04439)

interaction score (Aim21): 0.762
interaction score (Arc15): 0.9
interaction score (Arc18): 0.868
interaction score (Arc19): 0.768
interaction score (Arc40): 0.969
interaction score (Bbc1): 0.762
interaction score (Bmh1): 0.815
interaction score (Bzz1): 0.814
interaction score (Cdc10): 0.366
interaction score (Cdc3): 0.422
interaction score (Chc1): 0.568
interaction score (Cmd1): 0.26
interaction score (Hek2): 0.321
interaction score (Hsp104): 0.758
interaction score (Las17): 0.876
interaction score (Lsb3): 0.62
interaction score (Mid2): 0.864
interaction score (Myo5): 0.901
interaction score (Nap1): 0.48
interaction score (Osh2): 0.756
interaction score (Pab1): 0.8
interaction score (Pan1): 0.926
interaction score (Pfk1): 0.869
interaction score (Pkh2): 0.11
interaction score (Rvs167): 0.503
interaction score (Sac6): 0.823
interaction score (Sbp1): 0.824
interaction score (Sfk1): 0.736
interaction score (Sla1): 0.523
interaction score (Sla2): 0.621
interaction score (Smi1): 0.518
interaction score (Srv2): 0.632
interaction score (Ssa1): 0.914
interaction score (Ssb1): 0.942
interaction score (Ssb2): 0.932
interaction score (Ssz1): 0.835
interaction score (Ste20): 0.401
interaction score (Syp1): 0.513
interaction score (Tdh3): 0.97
interaction score (Tif4631): 0.665
interaction score (Vrp1): 0.917
interaction score (Ygl242c): 0.938
interaction score (Yor1): 0.454
interaction score (Ysc84): 0.463
Substance: Myo5 with SH3 extantMyo5 (from UniProt Q04439)

interaction score (Aim21): 0.767
interaction score (Arc15): 0.903
interaction score (Arc18): 0.88
interaction score (Arc19): 0.78
interaction score (Arc40): 0.97
interaction score (Bbc1): 0.767
interaction score (Bmh1): 0.833
interaction score (Bzz1): 0.835
interaction score (Cdc10): 0.379
interaction score (Cdc3): 0.457
interaction score (Chc1): 0.598
interaction score (Cmd1): 0.458
interaction score (Hek2): 0.401
interaction score (Hsp104): 0.774
interaction score (Las17): 0.879
interaction score (Lsb3): 0.643
interaction score (Mid2): 0.868
interaction score (Myo5): 0.907
interaction score (Nap1): 0.482
interaction score (Osh2): 0.762
interaction score (Pab1): 0.795
interaction score (Pan1): 0.936
interaction score (Pkh2): 0.095
interaction score (Rvs167): 0.53
interaction score (Sac6): 0.836
interaction score (Sbp1): 0.835
interaction score (Sfk1): 0.746
interaction score (Sla1): 0.56
interaction score (Sla2): 0.664
interaction score (Smi1): 0.562
interaction score (Srv2): 0.656
interaction score (Ssa1): 0.91
interaction score (Ssb1): 0.942
interaction score (Ssb2): 0.935
interaction score (Ste20): 0.425
interaction score (Syp1): 0.543
interaction score (Tdh3): 0.971
interaction score (Tif4631): 0.689
interaction score (Vrp1): 0.92
interaction score (Ygl242c): 0.944
interaction score (Yor1): 0.481
interaction score (Ysc84): 0.475
Substance: Myo5 with SH3 swap-optMyo3 (from UniProt Q04439)

Second part, the substance before the results:

Substance: Myo5 with SH3 controlMyo5 (from UniProt Q04439)
interaction score (Aim21): 0.756
interaction score (Arc15): 0.901
interaction score (Arc18): 0.87
interaction score (Arc19): 0.766
interaction score (Arc40): 0.952
interaction score (Bbc1): 0.758
interaction score (Bmh1): 0.82
interaction score (Bzz1): 0.823
interaction score (Cdc10): 0.374
interaction score (Cdc3): 0.433
interaction score (Chc1): 0.578
interaction score (Cmd1): 0.582
interaction score (Hek2): 0.36
interaction score (Hsp104): 0.76
interaction score (Las17): 0.877
interaction score (Lsb3): 0.624
interaction score (Mid2): 0.857
interaction score (Myo5): 0.898
interaction score (Nap1): 0.463
interaction score (Osh2): 0.745
interaction score (Pab1): 0.785
interaction score (Pan1): 0.926
interaction score (Pfk1): 0.855
interaction score (Pkh2): 0.102
interaction score (Rvs167): 0.5
interaction score (Sac6): 0.825
interaction score (Sbp1): 0.827
interaction score (Sfk1): 0.716
interaction score (Sla1): 0.539
interaction score (Sla2): 0.644
interaction score (Smi1): 0.532
interaction score (Srv2): 0.628
interaction score (Ssa1): 0.902
interaction score (Ssb1): 0.929
interaction score (Ssb2): 0.93
interaction score (Ssz1): 0.83
interaction score (Ste20): 0.421
interaction score (Syp1): 0.527
interaction score (Tdh3): 0.965
interaction score (Tif4631): 0.662
interaction score (Vrp1): 0.912
interaction score (Ygl242c): 0.929
interaction score (Yor1): 0.432
interaction score (Ysc84): 0.463

Substance: Myo5 with SH3 SH3-depleted (from UniProt Q04439)
interaction score (Aim21): 0.454
interaction score (Arc15): 0.877
interaction score (Arc18): 0.775
interaction score (Arc19): 0.469
interaction score (Arc40): 0.949
interaction score (Bbc1): 0.139
interaction score (Bmh1): 0.821
interaction score (Bzz1): 0.34
interaction score (Cdc10): 0.289
interaction score (Cdc3): 0.288
interaction score (Chc1): 0.599
interaction score (Cmd1): 0.27
interaction score (Hek2): 0.342
interaction score (Hsp104): 0.771
interaction score (Las17): 0.367
interaction score (Lsb3): 0.339
interaction score (Mid2): 0.79
interaction score (Myo5): 0.763
interaction score (Nap1): 0.514
interaction score (Osh2): 0.0609
interaction score (Pab1): 0.813
interaction score (Pan1): 0.616
interaction score (Pfk1): 0.874
interaction score (Rvs167): 0.0148
interaction score (Sac6): 0.766
interaction score (Sbp1): 0.852
interaction score (Sfk1): 0.219
interaction score (Sla1): 0.27
interaction score (Sla2): 0.341
interaction score (Smi1): 0.547
interaction score (Srv2): 0.398
interaction score (Ssb1): 0.94
interaction score (Ssb2): 0.946
interaction score (Ssz1): 0.853
interaction score (Ste20): 0.28
interaction score (Syp1): 0.199
interaction score (Tdh3): 0.969
interaction score (Tif4631): 0.689
interaction score (Vrp1): 0.606
interaction score (Ygl242c): 0.95
interaction score (Yor1): 0.144
interaction score (Ysc84): 0.281

Substance: Myo5 with SH3 swapMyo3 (from UniProt Q04439)
interaction score (Abp1): 0.908
interaction score (Aim21): 0.753
interaction score (Arc15): 0.9
interaction score (Arc18): 0.874
interaction score (Arc19): 0.762
interaction score (Arc40): 0.967
interaction score (Bbc1): 0.755
interaction score (Bmh1): 0.825
interaction score (Bzz1): 0.818
interaction score (Cdc10): 0.33
interaction score (Cdc3): 0.472
interaction score (Chc1): 0.594
interaction score (Cmd1): 0.196
interaction score (Hek2): 0.387
interaction score (Hsp104): 0.767
interaction score (Las17): 0.877
interaction score (Lsb3): 0.628
interaction score (Mid2): 0.858
interaction score (Myo5): 0.903
interaction score (Nap1): 0.479
interaction score (Osh2): 0.76
interaction score (Pab1): 0.795
interaction score (Pan1): 0.925
interaction score (Pfk1): 0.862
interaction score (Pkh2): 0.168
interaction score (Rvs167): 0.519
interaction score (Sac6): 0.824
interaction score (Sbp1): 0.824
interaction score (Sfk1): 0.714
interaction score (Sla1): 0.535
interaction score (Sla2): 0.632
interaction score (Smi1): 0.539
interaction score (Srv2): 0.637
interaction score (Ssb1): 0.934
interaction score (Ssb2): 0.932
interaction score (Ssz1): 0.838
interaction score (Ste20): 0.417
interaction score (Syp1): 0.557
interaction score (Tdh3): 0.972
interaction score (Tif4631): 0.665
interaction score (Vrp1): 0.917
interaction score (Ygl242c): 0.935
interaction score (Yor1): 0.492
interaction score (Ysc84): 0.459
